Results: PMC9482650, “Quantitative fragmentomics allow affinity mapping of interactomes” (Nature Communications, 2022)

What was measured:
Assay in all cases: holdup assay
Parameters in all cases: key: below the threshold = too weak to quantify, mostly under pKd 3.1 to 4
[1] = target: Inadl_1, Q8NI35
[2] = target: T1, PDZD7_3, Q9H5P4
T1 sequence (Q9H5P4 857-944, limits assumed, looked up): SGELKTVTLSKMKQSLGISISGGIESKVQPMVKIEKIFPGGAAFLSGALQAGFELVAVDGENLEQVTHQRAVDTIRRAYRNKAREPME

[3] = target: MAGI2_4, Q86UL8
[4] = target: T2, MPDZ_5, O75970
T2 sequence (O75970 695-796, limits assumed, looked up): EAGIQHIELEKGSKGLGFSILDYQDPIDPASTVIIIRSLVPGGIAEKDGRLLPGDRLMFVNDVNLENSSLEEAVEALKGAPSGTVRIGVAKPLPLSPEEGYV

[5] = target: CASK, O14936
[6] = target: MAGI2_6, Q86UL8
[7] = target: Inadl_5, Q8NI35
[8] = target: T3, LIN7C, Q9NUP9
T3 sequence (Q9NUP9 88-185, limits assumed, looked up): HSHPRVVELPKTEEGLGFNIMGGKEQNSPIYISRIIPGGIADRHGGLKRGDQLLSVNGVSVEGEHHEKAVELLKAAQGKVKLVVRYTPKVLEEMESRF

[9] = target: T4, SNTB1, Q13884
T4 sequence (Q13884 107-205, limits assumed, looked up): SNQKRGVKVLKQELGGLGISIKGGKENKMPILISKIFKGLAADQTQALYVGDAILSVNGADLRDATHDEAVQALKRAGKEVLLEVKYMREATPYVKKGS

[10] = target: FRMPD2_1, Q68DX3
[11] = target: GOPC, Q9HD26
[12] = target: T5, APBA1_2, Q02410
T5 sequence (Q02410 742-832, limits assumed, looked up): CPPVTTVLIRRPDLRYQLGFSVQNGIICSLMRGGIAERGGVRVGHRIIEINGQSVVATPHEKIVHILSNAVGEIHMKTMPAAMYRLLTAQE

[13] = target: T6, FRMPD1, Q5SYB0
T6 sequence (Q5SYB0 52-145, limits assumed, looked up): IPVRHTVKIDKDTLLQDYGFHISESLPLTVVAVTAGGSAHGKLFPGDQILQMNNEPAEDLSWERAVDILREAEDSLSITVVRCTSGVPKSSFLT

[14] = target: LNX1_3, Q8TBB1
[15] = target: GORASP1, Q9BQQ3
[16] = target: T7, DVL3, Q92997
T7 sequence (Q92997 244-331, limits assumed, looked up): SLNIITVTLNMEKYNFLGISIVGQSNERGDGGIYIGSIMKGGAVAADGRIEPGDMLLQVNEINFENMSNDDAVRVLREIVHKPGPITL

[17] = target: LAP2, Q96RT1
[18] = target: DLG4_3, P78352
[19] = target: SCRIB_2, Q14160
[20] = target: DLG1_3, Q12959
[21] = target: T8, GRIP1_7, Q9Y3R0
T8 sequence (Q9Y3R0 999-1096, limits assumed, looked up): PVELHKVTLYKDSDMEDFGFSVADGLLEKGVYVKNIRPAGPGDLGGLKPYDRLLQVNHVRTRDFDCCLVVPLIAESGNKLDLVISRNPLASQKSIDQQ

[22] = target: FRMPD2_2, Q68DX3
[23] = target: T9, DLG3_3, Q92796
T9 sequence (Q92796 374-475, limits assumed, looked up): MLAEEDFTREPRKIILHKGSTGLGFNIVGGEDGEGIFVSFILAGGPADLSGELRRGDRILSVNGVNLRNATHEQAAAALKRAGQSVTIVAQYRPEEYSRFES

[24] = target: T10, APBA2_1, Q99767
T10 sequence (Q99767 563-664, limits assumed, looked up): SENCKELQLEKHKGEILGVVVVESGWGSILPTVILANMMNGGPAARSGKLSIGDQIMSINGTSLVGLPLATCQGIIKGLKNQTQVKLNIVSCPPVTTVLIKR

[25] = target: T11, SHANK1, Q9Y566
T11 sequence (Q9Y566 658-767, limits assumed, looked up): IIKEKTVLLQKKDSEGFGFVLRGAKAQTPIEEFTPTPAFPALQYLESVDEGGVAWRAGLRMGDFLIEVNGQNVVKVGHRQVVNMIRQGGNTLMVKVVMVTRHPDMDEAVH

[26] = target: NOS1, P29475
[27] = target: FRMPD2_3, Q68DX3
[28] = plain residues with an end cap or a label only (N-terminal biotin on a linker: ahx)
[29] = plain residues with an end cap or a label only (N-terminal biotin on a linker: gsgsgs; C-terminal amide)
[30] = plain residues with an end cap or a label only (N-terminal biotin on a linker: ttds)

Chain of FRMPD2_2, Q68DX3 (Q68DX3 944-1038): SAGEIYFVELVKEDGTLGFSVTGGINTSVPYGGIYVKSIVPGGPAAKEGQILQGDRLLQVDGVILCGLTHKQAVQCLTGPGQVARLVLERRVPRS
Chain of MAGI2_4, Q86UL8 (Q86UL8 772-865): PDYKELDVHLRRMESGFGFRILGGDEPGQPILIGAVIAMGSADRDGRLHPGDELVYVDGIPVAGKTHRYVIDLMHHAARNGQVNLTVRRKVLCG
Chain of DLG1_3, Q12959 (Q12959 457-571): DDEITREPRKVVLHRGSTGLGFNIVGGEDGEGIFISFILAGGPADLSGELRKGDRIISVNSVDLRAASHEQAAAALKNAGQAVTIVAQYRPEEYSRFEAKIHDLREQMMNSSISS
Chain of MAGI2_6, Q86UL8 (Q86UL8 1141-1229): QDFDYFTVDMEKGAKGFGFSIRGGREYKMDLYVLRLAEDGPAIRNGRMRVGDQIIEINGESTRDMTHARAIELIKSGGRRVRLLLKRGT
Chain of Inadl_1, Q8NI35 (Q8NI35 113-229): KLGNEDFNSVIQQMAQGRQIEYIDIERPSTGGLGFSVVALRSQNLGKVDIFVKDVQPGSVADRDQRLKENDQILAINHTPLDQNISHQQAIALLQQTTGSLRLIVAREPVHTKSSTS
Chain of CASK, O14936 (O14936 487-570): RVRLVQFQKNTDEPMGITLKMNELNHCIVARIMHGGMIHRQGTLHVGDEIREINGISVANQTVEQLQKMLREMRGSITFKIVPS
Chain of DLG4_3, P78352 (P78352 306-403): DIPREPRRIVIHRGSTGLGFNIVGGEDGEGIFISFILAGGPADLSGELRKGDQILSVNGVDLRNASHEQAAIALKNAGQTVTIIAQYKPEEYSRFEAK
Chain of Inadl_5, Q8NI35 (Q8NI35 673-780): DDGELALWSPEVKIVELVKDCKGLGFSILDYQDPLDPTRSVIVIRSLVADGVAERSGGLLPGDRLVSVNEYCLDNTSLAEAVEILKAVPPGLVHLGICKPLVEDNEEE
Chain of LNX1_3, Q8TBB1 (Q8TBB1 500-596): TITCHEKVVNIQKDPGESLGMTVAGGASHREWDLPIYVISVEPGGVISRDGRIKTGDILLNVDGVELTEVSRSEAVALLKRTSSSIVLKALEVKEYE
Chain of LAP2, Q96RT1 (Q96RT1 other isoform, or with tags, fused parts or gaps): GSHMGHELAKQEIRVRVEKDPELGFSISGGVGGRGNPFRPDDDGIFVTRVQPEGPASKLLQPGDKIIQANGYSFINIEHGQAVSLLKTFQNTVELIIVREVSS
Chain of GORASP1, Q9BQQ3 (Q9BQQ3 1-208): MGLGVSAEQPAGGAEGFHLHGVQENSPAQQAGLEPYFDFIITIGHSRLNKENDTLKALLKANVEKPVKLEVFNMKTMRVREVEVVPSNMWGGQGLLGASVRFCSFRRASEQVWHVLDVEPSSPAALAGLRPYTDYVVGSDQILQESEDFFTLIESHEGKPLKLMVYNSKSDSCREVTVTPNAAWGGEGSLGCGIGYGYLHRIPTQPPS
Chain of FRMPD2_3, Q68DX3 (Q68DX3 1073-1166): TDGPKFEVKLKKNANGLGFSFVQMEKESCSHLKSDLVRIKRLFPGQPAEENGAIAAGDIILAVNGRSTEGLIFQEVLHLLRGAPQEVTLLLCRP
Chain of SCRIB_2, Q14160 (Q14160 857-960): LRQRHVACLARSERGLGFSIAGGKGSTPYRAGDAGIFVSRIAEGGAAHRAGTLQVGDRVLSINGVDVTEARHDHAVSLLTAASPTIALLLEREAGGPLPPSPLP
Chain of NOS1, P29475 (P29475 9-101): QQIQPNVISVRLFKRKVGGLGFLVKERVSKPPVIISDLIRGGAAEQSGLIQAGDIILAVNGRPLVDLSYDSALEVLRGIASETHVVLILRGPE
Chain of FRMPD2_1, Q68DX3 (Q68DX3 770-861): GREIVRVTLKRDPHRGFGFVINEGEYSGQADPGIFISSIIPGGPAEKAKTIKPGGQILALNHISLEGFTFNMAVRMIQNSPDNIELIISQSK

RAVEEEESRF [PSCDBP, O60759]
pKd [1, 28]: below the threshold | pKd [2, 28]: below the threshold | pKd [3, 28]: below the threshold | pKd [4, 28]: below the threshold | pKd [5, 28]: below the threshold | pKd [6, 28]: below the threshold | pKd [7, 28]: below the threshold | pKd [8, 28]: below the threshold | pKd [9, 28]: below the threshold | pKd [10, 28]: below the threshold | pKd [11, 28]: below the threshold | pKd [12, 28]: below the threshold | pKd [13, 28]: below the threshold | pKd [14, 28]: below the threshold | pKd [15, 28]: below the threshold | pKd [16, 28]: below the threshold | pKd [17, 28]: below the threshold | pKd [18, 28]: below the threshold | pKd [19, 28]: below the threshold | pKd [20, 28]: below the threshold | pKd [21, 28]: below the threshold | pKd [22, 28]: below the threshold | pKd [23, 28]: below the threshold | pKd [24, 28]: below the threshold | pKd [25, 28]: 4.77 | pKd [26, 28]: 3.62 | pKd [27, 28]: below the threshold

YGIVQETTFDLGGDIH [MLLT4_int, P55196]
pKd [1, 29]: below the threshold | pKd [2, 29]: 4.9 | pKd [3, 29]: below the threshold | pKd [4, 29]: below the threshold | pKd [5, 29]: below the threshold | pKd [6, 29]: below the threshold | pKd [7, 29]: below the threshold | pKd [8, 29]: 3.85 | pKd [9, 29]: 3.53 | pKd [10, 29]: below the threshold | pKd [11, 29]: below the threshold | pKd [12, 29]: below the threshold | pKd [13, 29]: below the threshold | pKd [14, 29]: below the threshold | pKd [15, 29]: below the threshold | pKd [16, 29]: below the threshold | pKd [17, 29]: below the threshold | pKd [18, 29]: below the threshold | pKd [19, 29]: 3.65 | pKd [20, 29]: below the threshold | pKd [21, 29]: below the threshold | pKd [22, 29]: below the threshold | pKd [23, 29]: below the threshold | pKd [24, 29]: below the threshold | pKd [25, 29]: below the threshold | pKd [26, 29]: below the threshold | pKd [27, 29]: below the threshold

RPLPRKVSQL [DOCK4, Q8N1I0]
pKd [1, 30]: below the threshold | pKd [2, 30]: 4.5 | pKd [3, 30]: below the threshold | pKd [4, 30]: below the threshold | pKd [5, 30]: below the threshold | pKd [6, 30]: below the threshold | pKd [7, 30]: below the threshold | pKd [8, 30]: below the threshold | pKd [9, 30]: 3.55 | pKd [10, 30]: below the threshold | pKd [11, 30]: 4.03 | pKd [12, 30]: 3.97 | pKd [13, 30]: below the threshold | pKd [14, 30]: below the threshold | pKd [15, 30]: 3.55 | pKd [16, 30]: below the threshold | pKd [17, 30]: 3.73 | pKd [18, 30]: 3.69 | pKd [19, 30]: below the threshold | pKd [20, 30]: 3.84 | pKd [21, 30]: below the threshold | pKd [22, 30]: below the threshold | pKd [23, 30]: below the threshold | pKd [24, 30]: below the threshold | pKd [25, 30]: below the threshold | pKd [26, 30]: below the threshold | pKd [27, 30]: below the threshold

RRRKRKRTYL [HPV49-L2, P36762]
pKd [1, 28]: below the threshold | pKd [2, 28]: 4.31 | pKd [3, 28]: below the threshold | pKd [4, 28]: below the threshold | pKd [5, 28]: below the threshold | pKd [6, 28]: below the threshold | pKd [7, 28]: 4.05 | pKd [8, 28]: below the threshold | pKd [9, 28]: 3.58 | pKd [10, 28]: 3.78 | pKd [11, 28]: 4.3 | pKd [12, 28]: 3.98 | pKd [13, 28]: below the threshold | pKd [14, 28]: below the threshold | pKd [15, 28]: 4.65 | pKd [16, 28]: 3.57 | pKd [17, 28]: below the threshold | pKd [18, 28]: 4.26 | pKd [19, 28]: below the threshold | pKd [20, 28]: 3.65 | pKd [21, 28]: 3.54 | pKd [22, 28]: below the threshold | pKd [23, 28]: 4.28 | pKd [24, 28]: below the threshold | pKd [25, 28]: 4.32 | pKd [26, 28]: 3.71 | pKd [27, 28]: below the threshold
